Patent publication US20120041175A1 (ROCKEFELLER UNIVERISTY, published 2012)

B1: Beclin 1-EGFP (fusion of mouse Beclin 1 and EGFP at the C-terminus) (other)
chain: MEGSKASSSTMQVSFVCQRCSQPLKLDTSFKILDRVTIQELTAPLLTTAQAKPGETQEEEANSGEEPFIETRQDGVSRRFIPPARMMSTESANSFTLIGEASDGGTMENLSRRLKVTGDLFDIMSGQTDVDHPLCEECTDTLLDQLDTQLNVTENECQNYKRCLEILEQMNEDDSEQLQRELKELALEEERLIQELEDVEKNRKVVAENLEKVQAEAERLDQEEAQYQREYSEFKRQQLELDDELKSVENQVRYAQIQLDKLKKTNVFNATFHIWHSGQFGTINNFRLGRLPSVPVEWNEINAAWGQTVLLLHALANKMGLKFQRYRLVPYGNHSYLESLTDKSKELPLYCSGGLRFFWDNKFDHAMVAFLDCVQQFKEEVEKGETRFCLPYRMDVEKGKIEDTGGSGGSYSIKTQFNSEEQWTKALKFMLTNLKWGLAWVSSQFYNK
notes: Expressed from a BAC transgene in beclin 1-/-; also called Beclin 1-GFP; not shown: EGFP inserted at the C-terminus in place of the stop codon

Assays:
[1] = target: nPIST (endogenous, mouse tissue) (mouse, UniProt Q8BH60 2-463); experiment: anti-GFP affinity isolation of Beclin 1-EGFP from mouse tissues, mass spectrometry
Method: (§1) Rubicon contains an N-terminal RUN (for RPIP8, UNC-14 and NESCA) domain, a C-terminal cysteine-rich domain, and a CCD domain in the central of the protein sequence. (D and E) HEK 293T cells were transfected with either N-terminal FLAG-tagged […] or C-terminal EGFP-tagged (E) ATG14L or Rubicon. Immunoprecipitation was performed with anti-FLAG (D) or anti-GFP antibody (E). The endogenous Beclin 1 co-immunoprecipitated were detected by Western blot analysis using anti-Beclin 1 antibody. WCL represents whole cell lysate, and IP represents immunoprecipitated.
(§2) Affinity purification of Beclin 1 interacting proteins and mass spectrometric identification of these proteins were carried out as described in Wang et al. (2006), with slight modification. In brief, tissue extracts were obtained from both beclin 1^{+/-} and beclin 1^{-/-}; beclin 1-GFP/+ mice at 4 month of age by homogenizing 2 brains or 1 liver with a motor-driven homogenizer (speed 2.5, 12 strokes) in 4 ml buffer containing 0.32 M sucrose, 1 mM NaHCO₃, 20 mM HEPEs/pH 7.4, 1 mM MgCl₂, 0.25 mM CaCl₂, EDTA-free protease inhibitor cocktail, 200 μg/mL PMSF, pepstatin 4 μg/mL, and DNase I. The tissue extracts were centrifuged at 1,400 g for 10 minutes and the pellets were homogenized again in 4 ml buffer for 8 strokes and centrifuged again. Supernatants from the two homogenization steps were pooled, centrifuged at 750 g for 10 minutes. […]

[2] = target: B1; experiment: as above
Method: as §1, §2

B1: no binding [1].

B2: Bif1 (endogenous, mouse tissue) (other, UniProt Q9JK48 1-365, looked up)
chain: MNIMDFNVKKLAADAGTFLSRAVQFTEEKLGQAEKTELDAHLENLLSKAECTKIWTEKIMKQTEVLLQPNPNARIEEFVYEKLDRKAPSRINNPELLGQYMIDAGTEFGPGTAYGNALIKCGETQKRIGTADRELIQTSALNFLTPLRNFIEGDYKTIAKERKLLQNKRLDLDAAKTRLKKAKAAETKSSSEQELRITQSEFDRQAEITRLLLEGISSTHAHHLRCLNDFVEAQMTYYAQCYQYMLDLQKQLGSFPSNYLSNNNQTSGTPVPYALSNAIGPSAQASTGSLVITCPSNLNDLKESSNNRKARVLYDYDAANSTELSLLADEVITVFSVVGMDSDWLMGERGNQKGKVPITYLELLN
B2: no binding [2].
